Source: the supplement of paper PMC9112550, “Optimization of the antimicrobial peptide Bac7 by deep mutational scanning” (BMC Biology, 2022)

tested on: Escherichia coli TOP10; experiment: shrunken log2 fold change of peptide-encoding DNA abundance (4.5 h post-induction vs induction); higher = less antimicrobial activity (less host growth inhibition); conditions: time post-induction: 4.5 h; library: site-saturation at positions 5, 18, 19, 20
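Note: peptides expressed intracellularly from a pBAD plasmid library in pooled LB shake-flask culture, induced with 0.3% L-arabinose, DNA abundance read by NGS, three biological replicates, DESeq2 with apeglm shrinkage.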

Sequence | shrunken log2 fold change
RRIRYRPPRLPRPRPRPNRAPRP | -0.0548
RRIRIRPPRLPRPRPRPAPSPRP | 0.444
RRIRPRPPRLPRPRPRPHAYPRP | -0.317
RRIRIRPPRLPRPRPRPMMAPRP | 0.0709
RRIRCRPPRLPRPRPRPFMEPRP | -0.996
RRIRWRPPRLPRPRPRPSRLPRP | 0.00373
RRIRGRPPRLPRPRPRPNAVPRP | 0.924
RRIRHRPPRLPRPRPRPWPPPRP | 0.491
RRIRNRPPRLPRPRPRPWYTPRP | 0.0349
RRIRYRPPRLPRPRPRPTPHPRP | -0.181
RRIRPRPPRLPRPRPRPHREPRP | -0.176
RRIRPRPPRLPRPRPRPRAFPRP | 0.32
RRIRARPPRLPRPRPRPMYCPRP | 0.0455
RRIRNRPPRLPRPRPRPWMSPRP | -0.0131
RRIRARPPRLPRPRPRPVLTPRP | 0.384
RRIRIRPPRLPRPRPRPTDGPRP | -0.00546
RRIRCRPPRLPRPRPRPGHCPRP | -0.0435
RRIRLRPPRLPRPRPRPVHQPRP | 0.244
RRIRYRPPRLPRPRPRPCMRPRP | -0.091
RRIRTRPPRLPRPRPRPVMGPRP | -0.0279
RRIRDRPPRLPRPRPRPTDEPRP | 0.0606
RRIRTRPPRLPRPRPRPHSMPRP | -0.665
RRIRSRPPRLPRPRPRPCPCPRP | -0.138
RRIRARPPRLPRPRPRPVWQPRP | 0.129
RRIRPRPPRLPRPRPRPCPYPRP | -1.08

Sequence | shrunken log2 fold change
RRIRYRPPRLPRPRPRPQREPRP | -0.00996
RRIRFRPPRLPRPRPRPDRKPRP | 0.00132
RRIRGRPPRLPRPRPRPHLRPRP | -0.148
RRIRQRPPRLPRPRPRPFEWPRP | 0.0112
RRIRWRPPRLPRPRPRPVHCPRP | -0.162
RRIRMRPPRLPRPRPRPAEQPRP | 0.395
RRIRDRPPRLPRPRPRPMTKPRP | -0.0341
RRIRLRPPRLPRPRPRPYYIPRP | -0.982
RRIRNRPPRLPRPRPRPWFQPRP | -0.109
RRIRQRPPRLPRPRPRPIMYPRP | -0.0857
RRIRERPPRLPRPRPRPKNEPRP | -0.315
RRIRWRPPRLPRPRPRPFYWPRP | -0.151
RRIRRRPPRLPRPRPRPGWSPRP | 0.472
RRIRLRPPRLPRPRPRPVLKPRP | 0.0956
RRIRLRPPRLPRPRPRPKRKPRP | -0.314
RRIRCRPPRLPRPRPRPEWAPRP | 0.292
RRIRNRPPRLPRPRPRPSDGPRP | 0.0337
RRIRSRPPRLPRPRPRPFPMPRP | -0.264
RRIRQRPPRLPRPRPRPDWRPRP | 0.0703
RRIRCRPPRLPRPRPRPGNDPRP | 0.00582
RRIRNRPPRLPRPRPRPVSYPRP | 0.0156
RRIRWRPPRLPRPRPRPTQCPRP | 0.115
RRIRFRPPRLPRPRPRPVFHPRP | -0.598
RRIRWRPPRLPRPRPRPSFQPRP | -0.284
RRIRMRPPRLPRPRPRPYVLPRP | -0.189

Sequence | shrunken log2 fold change
RRIRARPPRLPRPRPRPWGIPRP | -0.0125
RRIRFRPPRLPRPRPRPALYPRP | -0.155
RRIRSRPPRLPRPRPRPLCIPRP | -0.334
RRIRKRPPRLPRPRPRPCFTPRP | 0.135
RRIRLRPPRLPRPRPRPTCTPRP | -0.0583
RRIRWRPPRLPRPRPRPLAWPRP | 0.474
RRIRSRPPRLPRPRPRPYTEPRP | -0.186
RRIRLRPPRLPRPRPRPMISPRP | 0.00361
RRIRLRPPRLPRPRPRPDKLPRP | -0.266
RRIRKRPPRLPRPRPRPGSDPRP | 0.737
RRIRGRPPRLPRPRPRPLPNPRP | 0.781
RRIRTRPPRLPRPRPRPYDRPRP | -0.221
RRIRERPPRLPRPRPRPRWEPRP | 0.0891
RRIRRRPPRLPRPRPRPEAKPRP | 4.76
RRIRARPPRLPRPRPRPSYSPRP | -0.349
RRIRHRPPRLPRPRPRPHENPRP | -0.0891
RRIRHRPPRLPRPRPRPPIGPRP | 0.0617
RRIRGRPPRLPRPRPRPGRSPRP | 0.85
RRIRERPPRLPRPRPRPYRSPRP | -1.42
RRIRPRPPRLPRPRPRPTLGPRP | 0.564
RRIRFRPPRLPRPRPRPYFLPRP | -0.628
RRIRDRPPRLPRPRPRPKWNPRP | -0.159
RRIRIRPPRLPRPRPRPNWFPRP | 0.0822
RRIRWRPPRLPRPRPRPIASPRP | 0.104
RRIRSRPPRLPRPRPRPVLHPRP | -0.201

Sequence | shrunken log2 fold change
RRIRARPPRLPRPRPRPGMVPRP | 0.509
RRIRTRPPRLPRPRPRPMPNPRP | -0.17
RRIRDRPPRLPRPRPRPFRFPRP | -0.0342
RRIRSRPPRLPRPRPRPNDIPRP | -0.333
RRIRSRPPRLPRPRPRPFDIPRP | -0.639
RRIRWRPPRLPRPRPRPEETPRP | 0.0603
RRIRSRPPRLPRPRPRPYCQPRP | -0.164
RRIRRRPPRLPRPRPRPFTRPRP | -0.0292
RRIRWRPPRLPRPRPRPPVQPRP | 0.952
RRIRKRPPRLPRPRPRPKTLPRP | 0.239
RRIRARPPRLPRPRPRPCTYPRP | -0.173
RRIRRRPPRLPRPRPRPNRQPRP | -0.031
RRIRERPPRLPRPRPRPISKPRP | -0.575
RRIRDRPPRLPRPRPRPRTQPRP | 0.168
RRIRFRPPRLPRPRPRPNVRPRP | 0.0987
RRIRTRPPRLPRPRPRPHGKPRP | -0.209
RRIRFRPPRLPRPRPRPNLMPRP | -0.144
RRIRKRPPRLPRPRPRPWPRPRP | 0.264
RRIRCRPPRLPRPRPRPCHIPRP | -0.0941
RRIRSRPPRLPRPRPRPKWMPRP | 0.269
RRIRERPPRLPRPRPRPVIDPRP | -0.0264
RRIRGRPPRLPRPRPRPNYHPRP | -0.179
RRIRTRPPRLPRPRPRPHLNPRP | -0.358
RRIRSRPPRLPRPRPRPAITPRP | -0.0725
RRIRFRPPRLPRPRPRPTDDPRP | -0.019

Sequence | shrunken log2 fold change
RRIRIRPPRLPRPRPRPASHPRP | -0.106
RRIRQRPPRLPRPRPRPKWLPRP | 0.0992
RRIRCRPPRLPRPRPRPEVKPRP | 0.149
RRIRARPPRLPRPRPRPRMRPRP | 0.954
RRIRMRPPRLPRPRPRPWGSPRP | 0.0578
RRIRIRPPRLPRPRPRPGQVPRP | -0.0393
RRIRARPPRLPRPRPRPYEKPRP | -0.201
RRIRCRPPRLPRPRPRPFTGPRP | -0.0668
RRIRLRPPRLPRPRPRPKYVPRP | -0.126
RRIRPRPPRLPRPRPRPPCFPRP | 0.307
RRIRARPPRLPRPRPRPEPQPRP | 0.862
RRIRCRPPRLPRPRPRPEPWPRP | 0.634
RRIRDRPPRLPRPRPRPWTDPRP | 0.023
RRIRTRPPRLPRPRPRPFLAPRP | -0.0751
RRIRHRPPRLPRPRPRPHETPRP | 0.0369
RRIRDRPPRLPRPRPRPKMCPRP | -0.0407
RRIRSRPPRLPRPRPRPEKLPRP | -0.264
RRIRNRPPRLPRPRPRPMMAPRP | -0.106
RRIRIRPPRLPRPRPRPRVLPRP | -0.24
RRIRGRPPRLPRPRPRPEDGPRP | 1.31
RRIRRRPPRLPRPRPRPGYQPRP | 0.0538
RRIRSRPPRLPRPRPRPRMNPRP | 0.079
RRIRNRPPRLPRPRPRPAYVPRP | -0.0369
RRIRWRPPRLPRPRPRPEPSPRP | 0.39
RRIRWRPPRLPRPRPRPHISPRP | 0.00485

Sequence | shrunken log2 fold change
RRIRYRPPRLPRPRPRPSWNPRP | -1.04
RRIRERPPRLPRPRPRPNCAPRP | 0.172
RRIRMRPPRLPRPRPRPAGNPRP | 0.396
RRIRVRPPRLPRPRPRPSDVPRP | -0.184
RRIRLRPPRLPRPRPRPQWGPRP | 0.00618
RRIRGRPPRLPRPRPRPQWMPRP | 0.115
RRIRGRPPRLPRPRPRPRVGPRP | 1.02
RRIRKRPPRLPRPRPRPPAIPRP | 0.657
RRIRLRPPRLPRPRPRPFLKPRP | -0.0488
RRIRGRPPRLPRPRPRPQSDPRP | 0.254
RRIRLRPPRLPRPRPRPEPDPRP | 0.342
RRIRLRPPRLPRPRPRPGCCPRP | 0.387
RRIRWRPPRLPRPRPRPTGMPRP | 0.117
RRIRHRPPRLPRPRPRPWNPPRP | -0.221
RRIRKRPPRLPRPRPRPVISPRP | -0.00841
RRIRWRPPRLPRPRPRPILKPRP | -0.281
RRIRWRPPRLPRPRPRPTKYPRP | -0.124
RRIRYRPPRLPRPRPRPAVSPRP | 0.0627
RRIRPRPPRLPRPRPRPFADPRP | 0.174
RRIRCRPPRLPRPRPRPIDEPRP | -0.0366
RRIRWRPPRLPRPRPRPYNLPRP | -0.991
RRIRPRPPRLPRPRPRPWANPRP | -0.0618
RRIRFRPPRLPRPRPRPRLIPRP | -0.261
RRIRYRPPRLPRPRPRPMRKPRP | -0.00197
RRIRIRPPRLPRPRPRPYRFPRP | -0.636
